The text below walks through data of ChEMBL document CHEMBL1132365, “A multisubstrate adduct inhibitor of AICAR transformylase” (J Med Chem, 1999).

Substrate in series [1]: NC1=NC(=O)C2N=C(CN(C=O)c3ccc(C(=O)N[C@H](CCC(=O)O)C(=O)O)cc3)C=CC2N1
Put plainly: (§1) Substrate specificity towards AICAR formyltransferase.

Substrate in series [2]: NC1=NC(=O)C2N[C@@H](CN(C=O)c3ccc(C(=O)N[C@H](CCC(=O)O)C(=O)O)cc3)CNC2N1
The series is described as §1.

B1: Bifunctional purine biosynthesis protein ATIC (Homo sapiens), P31939 (protein)
chain: MAPGQLALFSVSDKTGLVEFARNLTALGLNLVASGGTAKALRDAGLAVRDVSELTGFPEMLGGRVKTLHPAVHAGILARNIPEDNADMARLDFNLIRVVACNLYPFVKTVASPGVTVEEAVEQIDIGGVTLLRAAAKNHARVTVVCEPEDYVVVSTEMQSSESKDTSLETRRQLALKAFTHTAQYDEAISDYFRKQYSKGVSQMPLRYGMNPHQTPAQLYTLQPKLPITVLNGAPGFINLCDALNAWQLVKELKEALGIPAAASFKHVSPAGAAVGIPLSEDEAKVCMVYDLYKTLTPISAAYARARGADRMSSFGDFVALSDVCDVPTAKIISREVSDGIIAPGYEEEALTILSKKKNGNYCVLQMDQSYKPDENEVRTLFGLHLSQKRNNGVVDKSLFSNVVTKNKDLPESALRDLIVATIAVKYTQSNSVCYAKNGQVIGIGAGQQSRIHCTRLAGDKANYWWLRHHPQVLSMKFKTGVKRAEISNAIDQYVTGTIGEDEDLIKWKALFEEVPELLTEAEKKEWVEKLTEVSISSDAFFPFRDNVDRAKRSGVAYIAAPSGSAADKVVIEACDELGIILAHTNLRLFHH
Broadly, the Km is the substrate concentration at which the rate is half of its maximum. As for B1, the Km was 102 µM in series [1] and 68 µM in series [2].
